This note sets out measurements from IntAct's records for PubMed 29892012.

First the molecules themselves.
B1: TBC1 domain family member 22B (Homo sapiens), Q9NU19 (parent)
chain: MAAENSKQFWKRSAKLPGSIQPVYGAQHPPLDPRLTKNFIKERSKVNTVPLKNKKASSFHEFARNTSDAWDIGDDEEEDFSSPSFQTLNSKVALATAAQVLENHSKLRVKPERSQSTTSDVPANYKVIKSSSDAQLSRNSSDTCLRNPLHKQQSLPLRPIIPLVARISDQNASGAPPMTVREKTRLEKFRQLLSSQNTDLDELRKCSWPGVPREVRPITWRLLSGYLPANTERRKLTLQRKREEYFGFIEQYYDSRNEEHHQDTYRQIHIDIPRTNPLIPLFQQPLVQEIFERILFIWAIRHPASGYVQGINDLVTPFFVVFLSEYVEEDVENFDVTNLSQDMLRSIEADSFWCMSKLLDGIQDNYTFAQPGIQKKVKALEELVSRIDEQVHNHFRRYEVEYLQFAFRWMNNLLMRELPLRCTIRLWDTYQSEPEGFSHFHLYVCAAFLIKWRKEILDEEDFQGLLMLLQNLPTIHWGNEEIGLLLAEAYRLKYMFADAPNHYRR
partner: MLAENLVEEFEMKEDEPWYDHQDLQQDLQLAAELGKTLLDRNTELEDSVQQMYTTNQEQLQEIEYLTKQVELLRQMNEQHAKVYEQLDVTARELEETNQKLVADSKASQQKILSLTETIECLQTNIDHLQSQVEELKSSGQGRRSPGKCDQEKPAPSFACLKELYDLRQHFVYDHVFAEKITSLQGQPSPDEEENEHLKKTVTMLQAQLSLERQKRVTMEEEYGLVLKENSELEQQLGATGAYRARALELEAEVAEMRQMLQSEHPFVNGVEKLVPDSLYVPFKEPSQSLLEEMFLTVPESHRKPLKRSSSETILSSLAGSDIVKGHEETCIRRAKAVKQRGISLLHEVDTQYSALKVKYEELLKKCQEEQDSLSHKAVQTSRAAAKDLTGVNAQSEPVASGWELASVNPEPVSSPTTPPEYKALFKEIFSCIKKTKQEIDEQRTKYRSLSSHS
B2: Coiled-coil alpha-helical rod protein 1 (Homo sapiens), Q8TD31 (parent)
chain: MFPPSGSTGLIPPSHFQARPLSTLPRMAPTWLSDIPLVQPPGHQDVSERRLDTQRPQVTMWERDVSSDRQEPGRRGRSWGLEGSQALSQQAEVIVRQLQELRRLEEEVRLLRETSLQQKMRLEAQAMELEALARAEKAGRAEAEGLRAALAGAEVVRKNLEEGSQRELEEVQRLHQEQLSSLTQAHEEALSSLTSKAEGLEKSLSSLETRRAGEAKELAEAQREAELLRKQLSKTQEDLEAQVTLVENLRKYVGEQVPSEVHSQTWELERQKLLETMQHLQEDRDSLHATAELLQVRVQSLTHILALQEEELTRKVQPSDSLEPEFTRKCQSLLNRWREKVFALMVQLKAQELEHSDSVKQLKGQVASLQEKVTSQSQEQAILQRSLQDKAAEVEVERMGAKGLQLELSRAQEARRRWQQQTASAEEQLRLVVNAVSSSQIWLETTMAKVEGAAAQLPSLNNRLSYAVRKVHTIRGLIARKLALAQLRQESCPLPPPVTDVSLELQQLREERNRLDAELQLSARLIQQEVGRAREQGEAERQQLSKVAQQLEQELQQTQESLASLGLQLEVARQGQQESTEEAASLRQELTQQQELYGQALQEKVAEVETRLREQLSDTERRLNEARREHAKAVVSLRQIQRRAAQEKERSQELRRLQEEARKEEGQRLARRLQELERDKNLMLATLQQEGLLSRYKQQRLLTVLPSLLDKKKSVVSSPRPPECSASAPVAAAVPTRESIKGSLSVLLDDLQDLSEAISKEEAVCQGDNLDRCSSSNPQMSS
partner: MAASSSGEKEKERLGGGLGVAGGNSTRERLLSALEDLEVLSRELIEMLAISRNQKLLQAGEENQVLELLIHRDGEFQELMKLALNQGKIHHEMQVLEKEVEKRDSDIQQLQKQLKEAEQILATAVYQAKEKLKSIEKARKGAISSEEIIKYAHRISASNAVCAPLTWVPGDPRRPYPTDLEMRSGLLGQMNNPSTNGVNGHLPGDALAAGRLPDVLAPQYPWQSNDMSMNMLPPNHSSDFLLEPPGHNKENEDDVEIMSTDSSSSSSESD
B3: Transmembrane protein 218 (Homo sapiens), A2RU14 (parent)
chain: MAGTVLGVGAGVFILALLWVAVLLLCVLLSRASGAARFSVIFLFFGAVIITSVLLLFPRAGEFPAPEVEVKIVDDFFIGRYVLLAFLSAIFLGGLFLVLIHYVLEPIYAKPLHSY
partner: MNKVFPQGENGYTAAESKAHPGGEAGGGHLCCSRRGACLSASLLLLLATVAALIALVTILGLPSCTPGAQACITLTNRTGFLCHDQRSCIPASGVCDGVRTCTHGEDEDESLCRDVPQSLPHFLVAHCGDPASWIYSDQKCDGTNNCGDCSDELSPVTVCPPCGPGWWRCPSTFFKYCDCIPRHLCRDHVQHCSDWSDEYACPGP
B4: Transcription factor RFX3 (Homo sapiens), P48380 (parent)
chain: MQTSETGSDTGSTVTLQTSVASQAAVPTQVVQQVPVQQQVQQVQTVQQVQHVYPAQVQYVEGSDTVYTNGAIRTTTYPYTETQMYSQNTGGNYFDTQGSSAQVTTVVSSHSMVGTGGIQMGVTGGQLISSSGGTYLIGNSMENSGHSVTHTTRASPATIEMAIETLQKSDGLSTHRSSLLNSHLQWLLDNYETAEGVSLPRSTLYNHYLRHCQEHKLDPVNAASFGKLIRSIFMGLRTRRLGTRGNSKYHYYGIRVKPDSPLNRLQEDMQYMAMRQQPMQQKQRYKPMQKVDGVADGFTGSGQQTGTSVEQTVIAQSQHHQQFLDASRALPEFGEVEISSLPDGTTFEDIKSLQSLYREHCEAILDVVVNLQFSLIEKLWQTFWRYSPSTPTDGTTITESSNLSEIESRLPKAKLITLCKHESILKWMCNCDHGMYQALVEILIPDVLRPIPSALTQAIRNFAKSLEGWLSNAMNNIPQRMIQTKVAAVSAFAQTLRRYTSLNHLAQAARAVLQNTSQINQMLSDLNRVDFANVQEQASWVCQCDDNMVQRLETDFKMTLQQQSTLEQWAAWLDNVMMQALKPYEGRPSFPKAARQFLLKWSFYSSMVIRDLTLRSAASFGSFHLIRLLYDEYMFYLVEHRVAQATGETPIAVMGEFGDLNAVSPGNLDKDEGSEVESEMDEELDDSSEPQAKREKTELSQAFPVGCMQPVLETGVQPSLLNPIHSEHIVTSTQTIRQCSATGNTYTAV
partner: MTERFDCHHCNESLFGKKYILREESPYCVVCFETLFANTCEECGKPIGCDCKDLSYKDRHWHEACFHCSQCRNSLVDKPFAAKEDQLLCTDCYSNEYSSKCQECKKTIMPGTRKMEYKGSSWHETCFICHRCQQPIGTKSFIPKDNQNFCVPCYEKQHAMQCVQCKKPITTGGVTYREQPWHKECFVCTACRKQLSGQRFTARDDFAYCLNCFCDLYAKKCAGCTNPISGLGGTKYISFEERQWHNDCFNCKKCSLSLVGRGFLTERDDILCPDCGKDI

One test covers variants of B1. As to conditions: with cdr2_human CDR2, Q01850.
Take A349T: the “effect of a mutation on the interaction” value is recorded as “disrupting interaction strength”.

In the next test the parent is B2. As to conditions: with med4_human MED4, Q9NPJ6.
On to W337R, for which the “effect of a mutation on the interaction” value is “with no effect”.

In another test the parent is B3. As to conditions: with lrad1_human LDLRAD1, Q5T700.
As to P66S, the “effect of a mutation on the interaction” value is reported as “with no effect”.

In the next test the parent is B4. As to conditions: with fhl2_human FHL2, Q14192.
S387C: the “effect of a mutation on the interaction” value is on record as “with no effect”.

A further test covers variants of B4. As to conditions: with fhl2_human FHL2, Q14192. The source holds these as a separate data set.
For the variant Y135D, the “effect of a mutation on the interaction” value is “with no effect”.
